In patent publication US20250224393A1:

Target: Recombinantly expressed GPIb protein fragment of a gain-of-function mutant of the human GPIb protein (human) (UniProt P07359)
Test: latex agglutination VWF activity assay; HBR total protein up to 0.02 mg/mL in solution, comparison control

Sequence of UniProt P07359 (P07359 other isoform, or with tags, fused parts or gaps mutant): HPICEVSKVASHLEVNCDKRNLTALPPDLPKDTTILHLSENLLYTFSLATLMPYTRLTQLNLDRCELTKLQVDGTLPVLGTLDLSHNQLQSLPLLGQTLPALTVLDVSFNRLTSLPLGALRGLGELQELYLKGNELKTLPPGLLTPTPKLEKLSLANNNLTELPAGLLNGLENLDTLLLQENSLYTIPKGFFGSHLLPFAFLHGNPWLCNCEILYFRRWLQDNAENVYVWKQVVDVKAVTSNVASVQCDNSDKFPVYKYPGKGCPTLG

In the case of “HBR-1 reagent (Heterophilic Blocking Reagent 1, Scantibodies Laboratory, Inc.) containing a mixture of mouse immunoglobulins”, the reduction of the VWF activity measured is reported as < 2.6%.
